# ± gives the uncertainty stated by the source.
# Experiment: protein stability index of a GFP-peptide fusion (yeast GPS) (PSI 1-4); higher = more stable; sorted into four equal gates, so the index is relative within each strain
# Procedure, shortened: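 The protein stability index combines read frequencies across sorting gates, each weighted by its gate number and then summed. To obtain those frequencies, a pooled yeast library of GFP fusions to tiled 17-residue yeast protein peptides, on a plasmid also expressing Cherry, was grown to mid-log phase in leucine-free medium. The cells were sorted into four equal gates by GFP/Cherry ratio before plasmid amplification by PCR and Illumina sequencing.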
Sequence,protein stability index (doa10∆),protein stability index (pdr5∆),protein stability index (ubr1∆),protein stability index (san1∆)
LKRNRIRNARSIRAEAV [POP1],1.71 ± 0.15,2.44 ± 0.1,2.59 ± 0.13,
LPSHIISTSDVTRIINS [RPL4A],2.43 ± 0.033,2.66 ± 0.038,2.55 ± 0.029,2.41 ± 0.035
KQTKLRKEKEKKPGKIA [SMB1],,3.36 ± 0.15,,2.51 ± 0.29
KKSKKKWSKKSMKDRAQ [RPS25A],3.46 ± 0.069,3.37 ± 0.1,3.6 ± 0.051,3.36 ± 0.087
NNNDNDANRNANNIVNI [GRR1],2.94 ± 0.052,3 ± 0.05,3.04 ± 0.045,2.9 ± 0.036
SLLESGSEILGDLKLQV [RPO21],3.59 ± 0.27,3.58 ± 0.14,3.02 ± 0.18,2.53 ± 0.21
ILNAKYTKETYQSRGID [RPN6],2.96 ± 0.062,3.04 ± 0.066,2.8 ± 0.056,2.97 ± 0.06
LRGSLLSRKPSDNKKRS [RPC82],2.96 ± 0.13,3.6 ± 0.14,3.01 ± 0.13,3.27 ± 0.1
LIEKEIQPKITELKKKL [SMC1],3.02 ± 0.1,2.91 ± 0.089,3.02 ± 0.077,2.9 ± 0.11
SKRPQLGEIPNPMKKHK [SIR4],2.44 ± 0.075,2.53 ± 0.059,2.69 ± 0.079,2.23 ± 0.089
NLKQANNVAYGKKRFRV [SMC4],2.41 ± 0.11,2.62 ± 0.077,2.31 ± 0.054,2.09 ± 0.095
VLTQLTALALKYLIKYN [CSI1],2.37 ± 0.11,2.75 ± 0.08,2.47 ± 0.074,2.55 ± 0.11
GVDAMSVDDLKKLNKNK [RPL1A],3.33 ± 0.078,3.14 ± 0.12,3.73 ± 0.11,3.25 ± 0.058
YGYPSYSTIRQLVYKRG [RPL7A],1.27 ± 0.061,1.52 ± 0.046,1.41 ± 0.047,1.25 ± 0.12
RYDCSFCGKKTVKRGAA [RPL43A],2.07 ± 0.066,2.13 ± 0.071,2.12 ± 0.053,2.21 ± 0.11
SVLKDSDDKTRQLSPHT [PRE1],2.56 ± 0.088,2.72 ± 0.11,2.52 ± 0.067,2.43 ± 0.099
DTNNEADLMALENATWT [SNF12],2.58 ± 0.074,3.18 ± 0.11,2.94 ± 0.09,2.64 ± 0.087
INSDNQNIILRSTMMKF [RPN3],2.82 ± 0.092,2.81 ± 0.086,2.9 ± 0.059,2.77 ± 0.11

Sequence,protein stability index (doa10∆),protein stability index (pdr5∆),protein stability index (ubr1∆),protein stability index (san1∆)
ELTIIKNPRVTKEYLVQ [CSN9],,3 ± 0.3,3.35 ± 0.091,3.15 ± 0.11
VLNCLRTMYFILDGQDV [YJR042W/NUP85],1.87 ± 0.083,1.42 ± 0.091,1.34 ± 0.078,1.31 ± 0.1
VKGETRIQNRVKLGLNS [PRP8],2.08 ± 0.16,2.7 ± 0.15,2.58 ± 0.15,2.23 ± 0.23
IQKESTLHLVLRLRGGI [RPL40A],2.48 ± 0.11,2.6 ± 0.071,2.54 ± 0.058,2.35 ± 0.1
TLQLGQEFQLKQINHQG [RPB4],3.22 ± 0.26,3.28 ± 0.15,3.38 ± 0.24,
NFTSPTAVVNNAAPANV [SWI1],2.86 ± 0.057,2.77 ± 0.08,2.91 ± 0.053,2.69 ± 0.088
KQNSSSDINQNDDSSSM [YDL088C/ASM4],3.1 ± 0.17,2.94 ± 0.08,2.69 ± 0.058,2.58 ± 0.088
INDFKKIGRENENENED [POP5],,3.38 ± 0.22,2.49 ± 0.27,2.76 ± 0.19
YQSLKQIVQVLKQPPFQ [SSN8],1.43 ± 0.082,2.22 ± 0.11,1.46 ± 0.097,
FISNLPNVSDKYYLEES [NUT1],2.16 ± 0.098,1.49 ± 0.094,1.27 ± 0.076,
LWELALAFIPNILALNL [YML031W/NDC1],2.01 ± 0.069,1.86 ± 0.048,1.34 ± 0.061,1.85 ± 0.083
LGFEVKDQALIGTINSI [SIR2],2.12 ± 0.051,2.48 ± 0.062,2.35 ± 0.073,2.27 ± 0.054
KKAVVKGTNGKKALKVR [RPL25],2.84 ± 0.094,2.24 ± 0.078,2.75 ± 0.063,1.91 ± 0.11
LMRQGVLGIKVKIMRDP [RPS3],2.4 ± 0.085,2.33 ± 0.074,2.74 ± 0.051,2.25 ± 0.083
LRYVIMKNPDVEFCGYS [RPC19],2.2 ± 0.14,2.07 ± 0.081,2.87 ± 0.091,2.3 ± 0.15
NSTGHSSNTNNNTNNNN [SWI1],3.48 ± 0.069,3.26 ± 0.066,3.33 ± 0.063,3.17 ± 0.054
YTFKTSMRVKPSASLKL [YMR129W/POM152],2.42 ± 0.16,2.6 ± 0.11,2.8 ± 0.097,2.31 ± 0.14
